Test results as given in US20080131422A1 (JURIDICAL FOUNDATION THE CHEMO SERO THERAPEUTIC RESEARCH …, published 2008).

Target: T1, Aβ42 peptide (amyloid β peptide 1-42), soluble (UniProt P05067 672-713)
T1 construct: domain: Aβ1-42; also called Aβ1-42; soluble Aβ42 peptide
Test: ELISA; tat-VL coated, Aβ42 peptide at 100 ng/well, anti-Aβ42 monoclonal antibody detection

T1 sequence (P05067 672-713 limits assumed): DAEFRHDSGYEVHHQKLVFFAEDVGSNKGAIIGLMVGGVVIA

B1: tat peptide-fused human-derived anti-Aβ42 peptide VL chain (other)
chain: MGYGRKKRRQRRRGDIVMTQSPDSLAVSLGERATINCKSSQSVIHNSNVKNCLAWYQQKLGQPPNLLIYWASTRESGVPDRFSGSGSGTDFTLKISRVEAEDVGVYYCMQSIQLPRTFGQGTKVEIKR
notes: also called tat-VL chain; tat peptide-fused VL chain
B1: binds.
